Source: patent US20260125454A1 (SHANGHAI JUNSHI BIOSCIENCES, published 2026)
Substitutions are numbered along the chain they refer to.

B1: hu31 (antibody, V domains shown)
VH: QVQLVQSGAEVKKPGASVKVSCKASGYTFIDFNMHWVRQAPGQRLEWMGYIYPYNGDVVYNQNFTNRVTLTVDTSSSTAYMELSSLRSEDTAVYYCAREGLGGYWGQGTLVTVSS
VL: EIVLTQSPATLSLSPGERATLSCKASQNIDFDGYAYMNWYQQKPGQAPRVLIYSVFNLESGIPARFSGSGSGTDFTLTISSLEPEDFAVYYCQQSHEVPYTFGQGTKLEIK
notes: 1F5 HC-1/1F5 LC1-1
B2: hu212 (antibody, V domains shown)
VH: B1 VH with I30T, F32Y, R44G, D57H, V58T, N63K, T65R, S84R, E89D
VL: DIQLTQSPSFLSASVGDRVTITCKASQNIDYDGYAYLNWYQQKPGKAPKVLIYSVFNLESGVPSRFSGSGSGTEFTLTISSLQPEDFATYYCQQSNEFPYTFGQGTKLEIK
notes: 3H10 HC-2/1A2 LC2-4
B3: hu55 (antibody, V domains shown)
VH: B1 VH with I30T, R44G, S84R, E89D
VL: B1 VL with F31Y, M37L, H96N, V98F
notes: 1F5 HC-3/1A2 LC2-3
B4: hu211 (antibody, V domains shown)
VH: B1 VH with I30T, F32Y, R44G, D57H, V58T, N63K, T65R, S84R, E89D
VL: B1 VL with F31Y, M37L, H96N, V98F
notes: 3H10 HC-2/1A2 LC2-3
B5: hu123 (antibody, V domains shown)
VH: B1 VH with I30T, F32Y, R44G, Y50N, D57G, V58T, N63K, T65N, S84R, E89D
VL: B1 VL with Q42H
notes: 2B8 HC1-2/1F5 LC1-2
B6: hu42 (antibody, V domains shown)
VH: B1 VH with I30T
VL: B1 VL with F31Y, M37L, H96N, V98F
notes: 1F5 HC-2/1A2 LC2-3
B7: hu97 (antibody, V domains shown)
VH: B1 VH with I30T, F32Y, I51V, D57G, V58S, V59A, N63K, T65K, N66S
VL: B1 VL with Q42H
notes: 2A2 HC-1/1F5 LC1-2
B8: hu187 (antibody, V domains shown)
VH: QVQLVQSGAEVKKPGASVKVSCKTSGYTFTDYNMHWVRQAPGQRLEWMGYISPYNAGTAYNQKFKFRVTLTVDTSSSTAYMELSSLRSEDTAVYYCAREGLGGYWGQGTLVTVSS
VL: B1 VL
notes: 3E5 HC-4/1F5 LC1-1
B9: hu122 (antibody, V domains shown)
VH: B1 VH with I30T, F32Y, R44G, Y50N, D57G, V58T, N63K, T65N, S84R, E89D
VL: B1 VL
notes: 2B8 HC1-2/1F5 LC1-1
B10: hu83 (antibody, V domains shown)
VH: B1 VH with G56A, N63D
VL: B1 VL
notes: 1F5 HC-5/1F5 LC1-1
B11: hu109 (antibody, V domains shown)
VH: B1 VH with I30T, F32Y, R44G, Y50N, D57G, V58T, N63K, T65N, S85R, E89D
VL: B1 VL
notes: 2B8 HC1-1/1F5 LC1-1
B12: hu198 (antibody, V domains shown)
VH: QVQLVQSGAEVKKPGASVKVSCKASGYTFTDYNMHWVRQAPGQGLEWMGYIYPYNGHTVYNQKFRNRVTMTVDTSSSTAYMELRSLRSDDTAVYYCAKEGLGGYWGQGTLVTVSS
VL: B1 VL with F31Y, M37L, H96N, V98F
notes: 3H10 HC-1/1A2 LC2-3
B13: hu135 (antibody, V domains shown)
VH: B12 VH with Y50N, G56A, H57G, R65N, M70L, R84S, S85R, K98R
VL: B1 VL
notes: 2B8 HC1-3/1F5 LC1-1
B14: hu44 (antibody, V domains shown)
VH: B1 VH with I30T
VL: B1 VL
notes: 1F5 HC-2/1F5 LC1-1
B15: hu162 (antibody, V domains shown)
VH: B8 VH with T24A, A56G
VL: B1 VL with Q42H
notes: 3E5 HC-2/1F5 LC1-2
B16: hu110 (antibody, V domains shown)
VH: B12 VH with Y50N, H57G, R65N, M70L, R84S, S85R, K98R
VL: B1 VL with Q42H
notes: 2B8 HC1-1/1F5 LC1-2
B17: hu159 (antibody, V domains shown)
VH: B8 VH with T24A, A56G
VL: B1 VL with F31Y, M37L, H96N, V98F
notes: 3E5 HC-2/1A2 LC2-3
B18: hu107 (antibody, V domains shown)
VH: B12 VH with Y50N, H57G, R65N, M70L, R84S, S85R, K98R
VL: B1 VL with F31Y, M37L, H96N, V98F
notes: 2B8 HC1-1/1A2 LC2-3
B19: hu161 (antibody, V domains shown)
VH: B8 VH with T24A, A56G
VL: B1 VL
notes: 3E5 HC-2/1F5 LC1-1
B20: hu175 (antibody, V domains shown)
VH: B8 VH with T24A, R44G, A56G, S85R, E89D, A92V
VL: B1 VL with Q42H
notes: 3E5 HC-3/1F5 LC1-2
B21: hu201 (antibody, V domains shown)
VH: B12 VH
VL: B1 VL with Q42H
notes: 3H10 HC-1/1F5 LC1-2
B22: hu148 (antibody, V domains shown)
VH: B8 VH with A56G
VL: B1 VL
notes: 3E5 HC-1/1F5 LC1-1
B23: hu96 (antibody, V domains shown)
VH: B8 VH with T24A, I51V, S52Y, A56G, T58S, F66S
VL: B1 VL
notes: 2A2 HC-1/1F5 LC1-1
B24: hu214 (antibody, V domains shown)
VH: B12 VH with M70L, K98R
VL: B1 VL with Q42H
notes: 3H10 HC-2/1F5 LC1-2
B25: hu174 (antibody, V domains shown)
VH: B8 VH with T24A, R44G, A56G, S85R, E89D, A92V
VL: B1 VL
notes: 3E5 HC-3/1F5 LC1-1
B26: hu149 (antibody, V domains shown)
VH: B8 VH with A56G
VL: B1 VL with Q42H
notes: 3E5 HC-1/1F5 LC1-2
B27: hu188 (antibody, V domains shown)
VH: B8 VH
VL: B1 VL with Q42H
notes: 3E5 HC-4/1F5 LC1-2
B28: hu57 (antibody, V domains shown)
VH: B1 VH with I30T, R44G, S84R, E89D
VL: B1 VL
notes: 1F5 HC-3/1F5 LC1-1
B29: hu133 (antibody, V domains shown)
VH: B12 VH with Y50N, G56A, H57G, R65N, M70L, R84S, S85R, K98R
VL: B1 VL with F31Y, M37L, H96N, V98F
notes: 2B8 HC1-3/1A2 LC2-3
B30: hu200 (antibody, V domains shown)
VH: B12 VH
VL: B1 VL
notes: 3H10 HC-1/1F5 LC1-1
B31: hu120 (antibody, V domains shown)
VH: B12 VH with Y50N, H57G, R65N, M70L, K98R
VL: B1 VL with F31Y, M37L, H96N, V98F
notes: 2B8 HC1-2/1A2 LC2-3
B32: hu172 (antibody, V domains shown)
VH: B8 VH with T24A, R44G, A56G, S85R, E89D, A92V
VL: B1 VL with F31Y, M37L, H96N, V98F
notes: 3E5 HC-3/1A2 LC2-3

Target: T1, Biotin-huCGRPaSA (human, not fully specified; biotin (position not given))
T1 construct: exact construct ('aSA') not explained; also called Biotin CGRPaSA; full-length (1-37) CGRP
T1 peptide: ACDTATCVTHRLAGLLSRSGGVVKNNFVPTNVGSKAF
Assay: ELISA, supernatant; relative to chimeric C245
How it was run: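 Plates coated with biotin-CGRPaSA at 1.0 μg/mL (90 min, 37°C) and blocked with 2% BSA. Humanized antibodies and chimeric C245 reference, 2.5-fold serial dilutions from 1000 ng/mL, bound 60 min at 37°C. Detection by HRP anti-human IgG (Fc), TMB 15 min, read at 450/620 nm.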

| Binder | Relative binding activity, % [%] |
| --- | --- |
| B1 | 79 |
| B2 | 38 |
| B3 | 18 |
| B4 | 54 |
| B5 | 96 |
| B6 | 55 |
| B7 | 82 |
| B8 | 67 |
| B9 | 97 |
| B10 | 102 |
| B11 | 78 |
| B12 | 39 |
| B13 | 98 |
| B14 | 99 |
| B15 | 81 |
| B16 | 85 |

| Binder | Relative binding activity, % [%] |
| --- | --- |
| B17 | 26 |
| B18 | 73 |
| B19 | 88 |
| B20 | 82 |
| B21 | 67 |
| B22 | 100 |
| B23 | 82 |
| B24 | 57 |
| B25 | 84 |
| B26 | 91 |
| B27 | 46 |
| B28 | 78 |
| B29 | 81 |
| B30 | 43 |
| B31 | 28 |
| B32 | 94 |
